From PMC12726774, “HAEEPGP Peptide Efficiently Prevents Alzheimer's Disease Pathology in Vivo” (Alzheimer's & Dementia, 2025)

Biological target: beta-amyloid (Aβ) peptide
Test: ITC; isothermal titration calorimetry of HAEEPGP with Aβ peptides; also with zinc ions, which enhanced the interaction; which peptide was titrated, buffer and temperature not told
Settings: both partners purified

B1: HAEEPGP peptide (peptide)
peptide: HAEEPGP
notes: HAEE tetrapeptide with PGP amino acids added to its C-terminus to stabilize the peptide; The 125I label was used for pharmacokinetics only, not for the calorimetry
Which Kd does the source give for B1 here?
Its Kd is 1640 nM.
